Test results: PMC7350762

Target: Myc-tagged MKL-1 (1–705) (MKL-1△TAD) (UniProt Q969V6)
UniProt Q969V6, sequence (Q969V6 1-705): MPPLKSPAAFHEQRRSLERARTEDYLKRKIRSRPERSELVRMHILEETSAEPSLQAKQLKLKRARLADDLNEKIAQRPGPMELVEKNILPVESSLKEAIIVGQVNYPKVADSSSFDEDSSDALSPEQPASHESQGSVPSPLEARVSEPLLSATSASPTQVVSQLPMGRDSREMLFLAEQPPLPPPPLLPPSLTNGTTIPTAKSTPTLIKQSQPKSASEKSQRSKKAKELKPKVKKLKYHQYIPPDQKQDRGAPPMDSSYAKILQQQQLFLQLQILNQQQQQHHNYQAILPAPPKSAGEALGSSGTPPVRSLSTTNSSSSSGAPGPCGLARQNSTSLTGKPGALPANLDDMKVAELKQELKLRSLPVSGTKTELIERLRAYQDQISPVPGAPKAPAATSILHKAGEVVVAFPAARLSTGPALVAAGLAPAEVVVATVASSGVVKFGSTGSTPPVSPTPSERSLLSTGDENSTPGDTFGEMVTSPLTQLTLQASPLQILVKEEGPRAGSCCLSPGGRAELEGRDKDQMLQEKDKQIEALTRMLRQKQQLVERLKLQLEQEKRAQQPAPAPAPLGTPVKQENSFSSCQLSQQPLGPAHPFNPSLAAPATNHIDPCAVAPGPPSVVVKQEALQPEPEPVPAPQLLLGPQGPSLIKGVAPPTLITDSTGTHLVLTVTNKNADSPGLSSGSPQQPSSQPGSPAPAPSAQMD

“Flag-tagged STAT5b (WT-STAT5b) (from UniProt P51692 1-787) (natural protein)” was tested, and the reduction in MKL-1 transactivation of the Foxp3 reporter (luciferase assay, HEK-293 T cells) by the mutation of the TAD of MKL-1 was 60%.
